What all share (assay): Kinase Profiling Assay
Test [1] deals with cKit(V560G)(h) (Homo sapiens, UniProt P10721, V560G). The class given is biochemical.
Test [2] addresses Ret(V804M)(h) (Homo sapiens, UniProt P07949, V804M). The class given is biochemical.
The target of test [3] is T1, JAK3(h) (Homo sapiens, UniProt P52333).
T1 sequence (P52333 1-1124): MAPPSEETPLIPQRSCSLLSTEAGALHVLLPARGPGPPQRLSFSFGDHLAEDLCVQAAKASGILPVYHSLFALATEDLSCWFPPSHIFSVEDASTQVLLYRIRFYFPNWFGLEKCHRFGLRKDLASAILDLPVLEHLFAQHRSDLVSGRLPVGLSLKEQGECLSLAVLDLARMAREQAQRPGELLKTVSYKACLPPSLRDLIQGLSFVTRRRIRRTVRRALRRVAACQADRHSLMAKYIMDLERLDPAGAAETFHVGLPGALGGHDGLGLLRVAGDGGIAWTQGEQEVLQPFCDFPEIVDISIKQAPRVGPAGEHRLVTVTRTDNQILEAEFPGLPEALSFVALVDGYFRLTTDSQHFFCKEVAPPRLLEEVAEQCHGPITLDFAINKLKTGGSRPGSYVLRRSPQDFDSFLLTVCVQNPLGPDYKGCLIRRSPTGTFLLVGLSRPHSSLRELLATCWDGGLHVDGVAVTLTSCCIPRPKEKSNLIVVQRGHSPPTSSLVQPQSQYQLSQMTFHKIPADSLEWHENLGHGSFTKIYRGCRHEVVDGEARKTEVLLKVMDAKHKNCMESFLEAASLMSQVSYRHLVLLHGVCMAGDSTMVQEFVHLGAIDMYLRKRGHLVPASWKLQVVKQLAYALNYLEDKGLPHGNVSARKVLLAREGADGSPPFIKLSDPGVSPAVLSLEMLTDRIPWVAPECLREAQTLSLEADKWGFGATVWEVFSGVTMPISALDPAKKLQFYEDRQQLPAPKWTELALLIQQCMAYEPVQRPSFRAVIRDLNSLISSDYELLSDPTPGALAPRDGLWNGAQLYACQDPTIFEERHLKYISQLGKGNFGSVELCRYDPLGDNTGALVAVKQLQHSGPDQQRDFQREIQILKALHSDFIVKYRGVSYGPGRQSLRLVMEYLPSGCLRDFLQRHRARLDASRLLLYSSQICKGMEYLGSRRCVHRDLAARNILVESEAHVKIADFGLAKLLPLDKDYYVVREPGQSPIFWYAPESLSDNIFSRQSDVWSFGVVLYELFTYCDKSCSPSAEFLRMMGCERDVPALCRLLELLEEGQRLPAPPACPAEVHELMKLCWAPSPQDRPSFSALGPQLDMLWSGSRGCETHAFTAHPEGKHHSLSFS
The class given is biochemical.

Test [4] has as its target TrkA(h) (Homo sapiens, UniProt P04629). It counts as biochemical.
For test [5], the target named is Fms(Y969C)(h) (Homo sapiens, UniProt P07333, Y969C). The class given is biochemical.
The target in test [6] is Fyn(h) (Homo sapiens, UniProt P06241). It counts as biochemical. The note with it: 100 μM.
Test [7] has as its target RIPK2(h) (Homo sapiens, UniProt O43353). The class given is biochemical. The note with it: 100 μM.
Test [8] concerns the target DAPK2(h) (Homo sapiens, UniProt Q9UIK4). It counts as biochemical. The conditions noted are these: 100 μM.
In test [9] the target is Arg(h) (Homo sapiens, UniProt P42684). The class given is biochemical. The conditions noted are these: 100 μM.
Test [10] has as its target Fer(h) (Homo sapiens, UniProt P16591). The class given is biochemical. The note with it: 100 μM.
Test [11] deals with AMPKa2(h) (Homo sapiens, UniProt P54646). It counts as biochemical. The conditions noted are these: 100 μM.
Chain of AMPKa2(h) (P54646 whole entry): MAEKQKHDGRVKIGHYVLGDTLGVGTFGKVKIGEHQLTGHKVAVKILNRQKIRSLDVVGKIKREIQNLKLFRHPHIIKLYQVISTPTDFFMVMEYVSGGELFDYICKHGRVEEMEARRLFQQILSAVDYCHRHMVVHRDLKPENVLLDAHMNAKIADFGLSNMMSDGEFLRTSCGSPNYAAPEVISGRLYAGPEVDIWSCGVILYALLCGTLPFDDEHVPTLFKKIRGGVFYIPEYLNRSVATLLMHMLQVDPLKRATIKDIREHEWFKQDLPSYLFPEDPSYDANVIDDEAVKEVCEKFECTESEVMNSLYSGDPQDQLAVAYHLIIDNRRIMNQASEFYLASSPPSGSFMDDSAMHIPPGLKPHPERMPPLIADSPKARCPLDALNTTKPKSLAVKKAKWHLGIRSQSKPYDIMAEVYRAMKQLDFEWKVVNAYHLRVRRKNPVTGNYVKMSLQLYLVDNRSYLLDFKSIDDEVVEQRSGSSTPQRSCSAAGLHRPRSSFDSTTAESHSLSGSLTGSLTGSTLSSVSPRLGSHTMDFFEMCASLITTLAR
Chain of AMPKa2(h) (Q9Y478 whole entry partner): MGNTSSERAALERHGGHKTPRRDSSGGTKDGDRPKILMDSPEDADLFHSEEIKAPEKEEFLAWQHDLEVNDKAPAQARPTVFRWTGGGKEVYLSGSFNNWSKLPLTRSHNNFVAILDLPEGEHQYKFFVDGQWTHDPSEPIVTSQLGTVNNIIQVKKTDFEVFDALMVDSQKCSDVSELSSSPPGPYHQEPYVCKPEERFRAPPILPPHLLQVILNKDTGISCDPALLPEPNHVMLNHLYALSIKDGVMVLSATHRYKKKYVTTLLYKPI
Chain of AMPKa2(h) (P54619 whole entry partner): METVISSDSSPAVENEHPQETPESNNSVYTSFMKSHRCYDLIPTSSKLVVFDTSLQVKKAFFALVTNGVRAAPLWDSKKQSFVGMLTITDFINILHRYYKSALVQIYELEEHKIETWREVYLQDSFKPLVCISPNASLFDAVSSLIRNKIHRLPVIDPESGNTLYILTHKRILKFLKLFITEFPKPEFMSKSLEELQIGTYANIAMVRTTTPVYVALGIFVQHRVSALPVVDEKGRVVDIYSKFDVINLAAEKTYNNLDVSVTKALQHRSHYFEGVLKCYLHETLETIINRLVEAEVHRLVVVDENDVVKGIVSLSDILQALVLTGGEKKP
In test [12] the target is cKit(D816V)(h) (Homo sapiens, UniProt P10721, D816V). It counts as biochemical. The note with it: 100 μM.
The target of test [13] is AMPKa1(h) (Homo sapiens, UniProt Q13131). It counts as biochemical. The conditions noted are these: 100 μM.
In test [14] the target is Met(D1246N)(h) (Homo sapiens, UniProt P08581, D1228N). The class given is biochemical. The conditions noted are these: 100 μM.
Test [15] addresses BTK(h) (Homo sapiens, UniProt Q06187). It counts as biochemical. The conditions noted are these: 100 μM.
Test [16] deals with ROCK-II(h) (Homo sapiens, UniProt O75116). The class given is biochemical. The note with it: 100 μM.
Chain of ROCK-II(h) (O75116 whole entry): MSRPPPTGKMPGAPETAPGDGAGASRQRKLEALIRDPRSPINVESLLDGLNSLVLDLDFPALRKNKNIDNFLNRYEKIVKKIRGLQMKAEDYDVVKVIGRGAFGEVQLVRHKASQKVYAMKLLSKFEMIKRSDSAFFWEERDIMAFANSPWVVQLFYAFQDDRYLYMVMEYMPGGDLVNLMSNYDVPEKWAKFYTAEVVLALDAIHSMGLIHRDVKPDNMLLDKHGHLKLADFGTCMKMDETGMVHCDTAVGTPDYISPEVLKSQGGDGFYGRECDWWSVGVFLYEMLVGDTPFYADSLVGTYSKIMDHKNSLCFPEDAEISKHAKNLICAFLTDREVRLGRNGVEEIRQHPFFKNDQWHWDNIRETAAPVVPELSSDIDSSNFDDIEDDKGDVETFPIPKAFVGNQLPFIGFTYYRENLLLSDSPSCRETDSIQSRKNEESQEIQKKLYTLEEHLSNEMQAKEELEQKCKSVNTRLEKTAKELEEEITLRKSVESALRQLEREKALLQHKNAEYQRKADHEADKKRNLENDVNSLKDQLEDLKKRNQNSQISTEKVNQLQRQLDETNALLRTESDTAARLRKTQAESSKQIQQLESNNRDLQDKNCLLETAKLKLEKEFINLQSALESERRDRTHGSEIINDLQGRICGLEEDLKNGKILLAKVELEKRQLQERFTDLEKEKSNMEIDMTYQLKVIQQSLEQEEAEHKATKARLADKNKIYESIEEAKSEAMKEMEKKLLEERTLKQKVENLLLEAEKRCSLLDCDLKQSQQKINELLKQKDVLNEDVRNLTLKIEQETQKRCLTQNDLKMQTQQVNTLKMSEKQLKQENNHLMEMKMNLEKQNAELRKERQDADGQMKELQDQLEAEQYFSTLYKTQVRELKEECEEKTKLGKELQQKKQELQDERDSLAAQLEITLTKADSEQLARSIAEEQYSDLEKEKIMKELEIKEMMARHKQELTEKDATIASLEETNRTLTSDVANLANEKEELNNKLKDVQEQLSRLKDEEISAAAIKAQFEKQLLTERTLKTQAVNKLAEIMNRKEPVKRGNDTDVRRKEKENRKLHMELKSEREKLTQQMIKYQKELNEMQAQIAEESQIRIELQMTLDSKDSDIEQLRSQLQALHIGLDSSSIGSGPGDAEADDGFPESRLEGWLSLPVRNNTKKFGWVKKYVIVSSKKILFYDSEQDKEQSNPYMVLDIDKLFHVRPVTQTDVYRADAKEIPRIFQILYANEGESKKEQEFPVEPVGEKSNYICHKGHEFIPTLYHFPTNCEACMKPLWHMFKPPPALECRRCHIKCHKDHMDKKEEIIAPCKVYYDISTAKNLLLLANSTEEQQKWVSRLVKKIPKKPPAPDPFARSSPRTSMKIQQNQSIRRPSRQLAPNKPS
The target of test [17] is CaMKIδ(h) (Homo sapiens, UniProt Q8IU85). The class given is biochemical. The note with it: 100 μM.
Test [18] has as its target Met(h) (Homo sapiens, UniProt P08581). It counts as biochemical. The conditions noted are these: 100 μM.
In test [19] the target is mTOR/FKBP12(h) (Homo sapiens, UniProt P42345). It counts as biochemical. The note with it: 100 μM.
Test [20] deals with PDGFRα(h) (Homo sapiens, UniProt P16234). It counts as biochemical. The note with it: 100 μM.
In test [21] the target is PKCθ(h) (Homo sapiens, UniProt Q04759). The class given is biochemical. The note with it: 100 μM.
For test [22], the target named is JNK3(h) (Homo sapiens, UniProt P53779). It counts as biochemical. The note with it: 100 μM.
Test [23] concerns MLCK(h). The class given is biochemical, human. The note with it: 100 μM.
In test [24] the target is CDK7/cyclinH/MAT1(h) (Homo sapiens, UniProt P50613). The class given is biochemical. The note with it: 100 μM.
Test [25] deals with Ron(h) (Homo sapiens, UniProt Q04912). The class given is biochemical. The conditions noted are these: 100 μM.
The target in test [26] is PDGFRβ(h) (Homo sapiens, UniProt P09619). It counts as biochemical. The conditions noted are these: 100 μM.
Chain of PDGFRβ(h) (P09619 33-1106): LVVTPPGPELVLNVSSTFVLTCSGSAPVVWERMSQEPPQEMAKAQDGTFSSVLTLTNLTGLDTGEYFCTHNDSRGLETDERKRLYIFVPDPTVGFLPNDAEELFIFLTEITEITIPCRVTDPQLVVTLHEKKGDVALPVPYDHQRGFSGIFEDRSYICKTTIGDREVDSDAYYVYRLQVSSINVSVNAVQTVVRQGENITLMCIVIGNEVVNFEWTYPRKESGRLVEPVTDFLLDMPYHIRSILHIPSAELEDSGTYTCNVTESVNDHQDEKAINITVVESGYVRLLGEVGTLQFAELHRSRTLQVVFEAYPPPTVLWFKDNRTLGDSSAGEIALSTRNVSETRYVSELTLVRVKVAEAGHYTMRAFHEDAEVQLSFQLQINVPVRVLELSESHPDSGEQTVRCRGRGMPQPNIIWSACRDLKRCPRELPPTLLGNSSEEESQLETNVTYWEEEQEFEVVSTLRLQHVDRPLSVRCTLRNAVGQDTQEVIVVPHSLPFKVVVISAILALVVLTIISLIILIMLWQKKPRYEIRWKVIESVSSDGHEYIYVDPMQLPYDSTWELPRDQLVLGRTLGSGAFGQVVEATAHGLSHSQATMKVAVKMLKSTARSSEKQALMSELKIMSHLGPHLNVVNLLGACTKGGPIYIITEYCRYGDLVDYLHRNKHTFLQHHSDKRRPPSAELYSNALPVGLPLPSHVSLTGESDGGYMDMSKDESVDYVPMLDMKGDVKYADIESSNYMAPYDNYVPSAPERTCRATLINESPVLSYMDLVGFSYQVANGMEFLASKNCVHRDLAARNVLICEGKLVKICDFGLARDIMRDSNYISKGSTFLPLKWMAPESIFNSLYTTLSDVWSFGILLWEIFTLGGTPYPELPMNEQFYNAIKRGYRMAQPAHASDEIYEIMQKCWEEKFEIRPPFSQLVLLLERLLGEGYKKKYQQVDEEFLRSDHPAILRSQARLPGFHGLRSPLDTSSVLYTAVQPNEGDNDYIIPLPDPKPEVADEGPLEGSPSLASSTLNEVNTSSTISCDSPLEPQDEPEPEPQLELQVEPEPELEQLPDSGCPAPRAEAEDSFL
For test [27], the target named is NEK7(h) (Homo sapiens, UniProt Q8TDX7). The class given is biochemical. The note with it: 100 μM.

Chain of TrkA(h) (P04629 33-796): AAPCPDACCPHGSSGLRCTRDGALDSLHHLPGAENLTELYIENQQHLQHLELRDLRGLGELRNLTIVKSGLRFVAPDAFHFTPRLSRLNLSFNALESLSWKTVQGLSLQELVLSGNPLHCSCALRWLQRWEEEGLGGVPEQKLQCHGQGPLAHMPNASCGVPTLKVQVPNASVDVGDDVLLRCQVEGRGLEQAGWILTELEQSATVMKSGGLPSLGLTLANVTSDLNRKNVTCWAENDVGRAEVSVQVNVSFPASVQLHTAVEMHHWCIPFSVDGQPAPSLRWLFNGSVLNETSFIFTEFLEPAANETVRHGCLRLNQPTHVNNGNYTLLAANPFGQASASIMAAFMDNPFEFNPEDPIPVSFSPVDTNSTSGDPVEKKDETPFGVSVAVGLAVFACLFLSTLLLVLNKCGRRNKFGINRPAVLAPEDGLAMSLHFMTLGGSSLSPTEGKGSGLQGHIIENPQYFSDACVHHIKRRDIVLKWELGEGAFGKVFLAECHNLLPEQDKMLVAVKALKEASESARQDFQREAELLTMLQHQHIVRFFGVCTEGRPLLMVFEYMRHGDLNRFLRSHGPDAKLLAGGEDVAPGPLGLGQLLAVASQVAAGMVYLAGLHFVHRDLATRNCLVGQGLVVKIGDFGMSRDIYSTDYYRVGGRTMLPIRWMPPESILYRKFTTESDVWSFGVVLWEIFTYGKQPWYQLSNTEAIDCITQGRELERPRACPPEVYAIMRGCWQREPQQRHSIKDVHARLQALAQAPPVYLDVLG
Chain of RIPK2(h) (O43353 whole entry): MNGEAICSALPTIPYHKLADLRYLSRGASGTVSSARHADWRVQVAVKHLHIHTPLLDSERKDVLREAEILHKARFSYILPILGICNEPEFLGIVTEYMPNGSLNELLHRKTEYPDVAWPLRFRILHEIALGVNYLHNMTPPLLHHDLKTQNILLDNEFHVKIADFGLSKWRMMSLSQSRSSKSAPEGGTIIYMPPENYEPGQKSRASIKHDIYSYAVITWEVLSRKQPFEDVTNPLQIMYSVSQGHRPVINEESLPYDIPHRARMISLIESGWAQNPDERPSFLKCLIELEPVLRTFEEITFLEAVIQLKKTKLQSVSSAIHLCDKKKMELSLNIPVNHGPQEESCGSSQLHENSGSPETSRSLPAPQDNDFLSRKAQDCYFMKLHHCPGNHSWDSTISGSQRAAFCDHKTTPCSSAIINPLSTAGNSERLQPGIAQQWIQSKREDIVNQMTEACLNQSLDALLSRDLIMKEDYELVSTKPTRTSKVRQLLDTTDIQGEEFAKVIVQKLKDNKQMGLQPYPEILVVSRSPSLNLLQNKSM

Consider H-YARAAARQARAKALARQLGVAA-OH [MMI-0100], for which the activity at 100 µM in test [1] came to 94%; in test [2] it was 92%; in test [3], 150%; in test [4] it was 74%; in test [5], 126%.
As for “HRRIKAWLKKIKALARQLGVAA (Mammalian) [MMI-0500]”, the “% activity” value in test [6] came to 83%; in [7], 30%; in [8], 3%; in test [9] it was 22%; in test [10], 196%; in test [11], 9%. In addition, the “% activity” value in test [12] stood at 30%; in test [1] (100 μM) it was 198%; in test [13], 35%; in test [14], 90%; in test [2] (100 μM), 36%; in test [3] (100 μM), 95%. Moreover, the “% activity” value is 18% in [15]; 2% in test [16]; 0% in test [17]; 27% in test [18]; 140% in test [19]; 40% in test [20]. Moreover, the “% activity” value in test [21] was 62%; in test [4] (100 μM) it was 24%; in [22], 171%; in test [23], 0%; in [24], 15%; in test [25], 46%. For the same substance, the “% activity” value in test [26] is on record as 40%; in test [27], 89%.
In the case of “YARAAARQARAKALNRQLGVA (Mammalian) [MMI-0200]”, the “% activity” value in [6] is listed as 75%; in [7] it was 98%; in [8], 92%; in test [9] it was 82%; in test [10], 101%; in test [11], 88%. Moreover, the “% activity” value in test [12] amounted to 118%; in [13] it was 108%; in test [14] it was 149%; in test [15] it was 100%; in test [16], 85%; in test [17], 47%. The “% activity” value in [18] was 71%; in test [19], 118%; in test [20] it was 108%; in test [21], 101%; in test [22], 90%; in [23], 103%. The “% activity” value turned out to be 67% in test [24]; 120% in test [25]; 88% in test [5] (100 μM); 137% in test [26]; 96% in [27].

The record behind these values is patent US10087225B2, “Formulation of MK2 inhibitor peptides” (MOERAE MATRIX, INC., priority 2015, dated 2018).
